# Results as given in PMC8956256 (Science Advances, 2022).
# Biological target: the molecule itself
# Test: cryo-EM structure
protein,measurement,value
Human TMEM175 (transmembrane protein 175) (natural protein) MSQPRTPEQALDTPGDCPPGRRDEDAGEGIQCSQRMLSFSDALLSIIATVMILPVTHTEISPEQQFDRSVQRLLATRIAVYLMTFLIVTVAWAAHTRLFQVVGKTDDTLALLNLACMMTITFLPYTFSLMVTFPDVPLGIFLFCVCVIAIGVVQALIVGYAFHFPHLLSPQIQRSAHRALYRRHVLGIVLQGPALCFAAAIFSLFFVPLSYLLMVTVILLPYVSKVTGWCRDRLLGHREPSAHPVEVFSFDLHEPLSKERVEAFSDGVYAIVATLLILDICEDNVPDPKDVKERFSGSLVAALSATGPRFLAYFGSFATVGLLWFAHHSLFLHVRKATRAMGLLNTLSLAFVGGLPLAYQQTSAFARQPRDELERVRVSCTIIFLASIFQLAMWTTALLHQAETLQPSVWFGGREHVLMFAKLALYPCASLLAFASTCLLSRFSVGIFHLMQIAVPCAFLLLRLLVGLALATLRVLRGLARPEHPPPAPTGQDDPQSQLLPAPC,stoichiometry N,2
